Measured values as given in the supplement of paper PMC9112550, “Optimization of the antimicrobial peptide Bac7 by deep mutational scanning” (BMC Biology, 2022).

Test system: Escherichia coli TOP10
Assay: shrunken log2 fold change of peptide-encoding DNA abundance (4.5 h post-induction vs induction); higher = less antimicrobial activity (less host growth inhibition)
Details: time post-induction: 4.5 h; library: site-saturation at positions 5, 18, 19, 20
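Further: peptides expressed intracellularly from a pBAD plasmid library in pooled LB shake-flask culture, induced with 0.3% L-arabinose, DNA abundance read by NGS, three biological replicates, DESeq2 with apeglm shrinkage.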

| Sequence | shrunken log2 fold change |
| --- | --- |
| RRIRCRPPRLPRPRPRPQRTPRP | 0.288 |
| RRIRYRPPRLPRPRPRPKSVPRP | -0.187 |
| RRIRVRPPRLPRPRPRPSDIPRP | -0.965 |
| RRIRQRPPRLPRPRPRPWSCPRP | -0.462 |
| RRIRRRPPRLPRPRPRPQYMPRP | -0.234 |
| RRIRSRPPRLPRPRPRPMIGPRP | 0.0355 |
| RRIRHRPPRLPRPRPRPTVQPRP | 0.118 |
| RRIRYRPPRLPRPRPRPLYWPRP | -0.943 |
| RRIRCRPPRLPRPRPRPDITPRP | -0.022 |
| RRIRKRPPRLPRPRPRPPNRPRP | 0.151 |
| RRIRDRPPRLPRPRPRPHYSPRP | -0.16 |
| RRIRARPPRLPRPRPRPNTMPRP | -0.223 |
| RRIRWRPPRLPRPRPRPDAKPRP | 0.0403 |
| RRIRARPPRLPRPRPRPFVYPRP | -0.116 |
| RRIRSRPPRLPRPRPRPDGTPRP | -0.199 |
| RRIRIRPPRLPRPRPRPMAWPRP | 0.0272 |
| RRIRMRPPRLPRPRPRPKKIPRP | 0.599 |
| RRIRPRPPRLPRPRPRPGDIPRP | -0.027 |
| RRIRMRPPRLPRPRPRPQKPPRP | -0.165 |
| RRIRWRPPRLPRPRPRPYQSPRP | -0.583 |
| RRIRPRPPRLPRPRPRPPVQPRP | 0.341 |
| RRIRDRPPRLPRPRPRPYHKPRP | -0.0174 |
| RRIRWRPPRLPRPRPRPEDEPRP | 0.0692 |
| RRIRNRPPRLPRPRPRPPAVPRP | 0.387 |
| RRIRCRPPRLPRPRPRPPVNPRP | -0.0382 |

| Sequence | shrunken log2 fold change |
| --- | --- |
| RRIRWRPPRLPRPRPRPIYKPRP | -0.596 |
| RRIRNRPPRLPRPRPRPLFGPRP | 0.0228 |
| RRIRQRPPRLPRPRPRPQIAPRP | -0.133 |
| RRIRKRPPRLPRPRPRPMNIPRP | -0.213 |
| RRIRIRPPRLPRPRPRPLEPPRP | 0.111 |
| RRIRDRPPRLPRPRPRPYYSPRP | 0.0804 |
| RRIRKRPPRLPRPRPRPDKCPRP | -0.142 |
| RRIRNRPPRLPRPRPRPRIWPRP | 0.0945 |
| RRIRTRPPRLPRPRPRPHEMPRP | 0.0124 |
| RRIRWRPPRLPRPRPRPKTLPRP | 0.19 |
| RRIRKRPPRLPRPRPRPQPHPRP | 0.554 |
| RRIRKRPPRLPRPRPRPLWRPRP | 0.609 |
| RRIRSRPPRLPRPRPRPFASPRP | 0.0202 |
| RRIRDRPPRLPRPRPRPKFSPRP | -0.023 |
| RRIRHRPPRLPRPRPRPIMAPRP | -0.383 |
| RRIRWRPPRLPRPRPRPQNPPRP | -0.0448 |
| RRIRNRPPRLPRPRPRPDRFPRP | -0.148 |
| RRIRFRPPRLPRPRPRPFPCPRP | -0.151 |
| RRIRMRPPRLPRPRPRPMCQPRP | 0.00866 |
| RRIRCRPPRLPRPRPRPMQHPRP | -0.173 |
| RRIRRRPPRLPRPRPRPLKCPRP | 0.0734 |
| RRIRSRPPRLPRPRPRPKEGPRP | -0.0287 |
| RRIRNRPPRLPRPRPRPSGDPRP | -0.252 |
| RRIRPRPPRLPRPRPRPRYEPRP | -0.0954 |
| RRIRVRPPRLPRPRPRPRWVPRP | 0.309 |

| Sequence | shrunken log2 fold change |
| --- | --- |
| RRIRCRPPRLPRPRPRPPLQPRP | 0.228 |
| RRIRYRPPRLPRPRPRPCQHPRP | -0.253 |
| RRIRLRPPRLPRPRPRPSITPRP | -0.436 |
| RRIRARPPRLPRPRPRPSCAPRP | 0.689 |
| RRIRTRPPRLPRPRPRPNVLPRP | -0.0117 |
| RRIRDRPPRLPRPRPRPRETPRP | 0.567 |
| RRIRNRPPRLPRPRPRPVRAPRP | 0.545 |
| RRIRERPPRLPRPRPRPGVIPRP | -0.0985 |
| RRIRSRPPRLPRPRPRPCQNPRP | 0.0167 |
| RRIRDRPPRLPRPRPRPEPVPRP | 0.576 |
| RRIRGRPPRLPRPRPRPDEDPRP | 0.168 |
| RRIRKRPPRLPRPRPRPTIFPRP | 0.2 |
| RRIRDRPPRLPRPRPRPLIGPRP | 0.239 |
| RRIRHRPPRLPRPRPRPHPIPRP | -0.107 |
| RRIRHRPPRLPRPRPRPRWEPRP | 0.136 |
| RRIRARPPRLPRPRPRPHNAPRP | -0.0368 |
| RRIRRRPPRLPRPRPRPSMRPRP | 0.557 |
| RRIRQRPPRLPRPRPRPRKFPRP | 0.214 |
| RRIRSRPPRLPRPRPRPEQWPRP | 0.172 |
| RRIRCRPPRLPRPRPRPHADPRP | 0.145 |
| RRIRPRPPRLPRPRPRPWDTPRP | -0.743 |
| RRIRARPPRLPRPRPRPGMCPRP | 0.494 |
| RRIRIRPPRLPRPRPRPIERPRP | -0.0785 |
| RRIRYRPPRLPRPRPRPQAWPRP | 0.0215 |
| RRIRPRPPRLPRPRPRPQSLPRP | -0.288 |

| Sequence | shrunken log2 fold change |
| --- | --- |
| RRIRKRPPRLPRPRPRPEHHPRP | -0.0888 |
| RRIRTRPPRLPRPRPRPKQCPRP | -0.00809 |
| RRIRKRPPRLPRPRPRPGIWPRP | 0.362 |
| RRIRYRPPRLPRPRPRPVSMPRP | -0.00201 |
| RRIRFRPPRLPRPRPRPKLSPRP | -0.258 |
| RRIRHRPPRLPRPRPRPDGLPRP | -0.0219 |
| RRIRCRPPRLPRPRPRPFTYPRP | -0.631 |
| RRIRERPPRLPRPRPRPSSCPRP | -0.0232 |
| RRIRKRPPRLPRPRPRPFWNPRP | -0.0468 |
| RRIRARPPRLPRPRPRPWAAPRP | 0.239 |
| RRIRVRPPRLPRPRPRPPSHPRP | -0.0316 |
| RRIRMRPPRLPRPRPRPTMMPRP | 0.168 |
| RRIRYRPPRLPRPRPRPVELPRP | -0.151 |
| RRIRNRPPRLPRPRPRPEALPRP | 0.102 |
| RRIRPRPPRLPRPRPRPTDPPRP | 0.0787 |
| RRIRCRPPRLPRPRPRPVIMPRP | -0.604 |
| RRIRQRPPRLPRPRPRPEPKPRP | 0.244 |
| RRIRKRPPRLPRPRPRPIWVPRP | 0.00396 |
| RRIRDRPPRLPRPRPRPKIDPRP | 0.0277 |
| RRIRYRPPRLPRPRPRPACEPRP | -0.0778 |
| RRIRIRPPRLPRPRPRPINSPRP | -0.619 |
| RRIRHRPPRLPRPRPRPNHEPRP | -0.493 |
| RRIRTRPPRLPRPRPRPDGMPRP | 0.0749 |
| RRIRNRPPRLPRPRPRPFKLPRP | -0.155 |
| RRIRKRPPRLPRPRPRPTHIPRP | 0.328 |

| Sequence | shrunken log2 fold change |
| --- | --- |
| RRIRNRPPRLPRPRPRPTTDPRP | -0.199 |
| RRIRERPPRLPRPRPRPYAMPRP | -0.416 |
| RRIRLRPPRLPRPRPRPCHEPRP | 0.0247 |
| RRIRFRPPRLPRPRPRPIEGPRP | 0.0922 |
| RRIRIRPPRLPRPRPRPMIQPRP | 0.102 |
| RRIRHRPPRLPRPRPRPCTPPRP | -0.382 |
| RRIRTRPPRLPRPRPRPFRGPRP | -0.175 |
| RRIRKRPPRLPRPRPRPTDIPRP | -0.0678 |
| RRIRWRPPRLPRPRPRPQCLPRP | -0.073 |
| RRIRDRPPRLPRPRPRPAFVPRP | -0.114 |
| RRIRCRPPRLPRPRPRPAVAPRP | 0.137 |
| RRIRVRPPRLPRPRPRPQPTPRP | 0.408 |
| RRIRCRPPRLPRPRPRPDMNPRP | -0.312 |
| RRIRPRPPRLPRPRPRPYKAPRP | -0.183 |
| RRIRWRPPRLPRPRPRPERYPRP | 0.142 |
| RRIRWRPPRLPRPRPRPTFSPRP | -0.0911 |
| RRIRVRPPRLPRPRPRPVLSPRP | -0.11 |
| RRIRERPPRLPRPRPRPVAIPRP | -0.121 |
| RRIRWRPPRLPRPRPRPSGEPRP | 0.138 |
| RRIRLRPPRLPRPRPRPKQFPRP | 0.0426 |
| RRIRTRPPRLPRPRPRPQEQPRP | 0.021 |
| RRIRDRPPRLPRPRPRPLPKPRP | 0.368 |
| RRIRRRPPRLPRPRPRPNVGPRP | 0.0319 |
| RRIRSRPPRLPRPRPRPCHYPRP | -0.0214 |
| RRIRTRPPRLPRPRPRPPEVPRP | 0.0579 |
